According to a protein production outcome set (Wang et al. 2014):

Assay: label from the status in PepcDB records

Sequence	protein production
MGGRVTDVYNAFVPLVHISNNSTSDTNKAKENIISKLLDILSGIFVPIIHAIIGAGLLKGILIFLNFYHLVSPATSTYKLLSVFSDSAFYFMPILLAYSSAKKFKTNKYVAVAIAGILVHPELISMMSKSASVKFFGIPFTSATYSTSVLPIILGVWVMSYIERGLNKIIPKILRTVLVPLFTLLITAPIILGILGPIGTIVGDAIGQGTVQLYLHYGVIAGILVGAAYPFLVIMGMHVGFTPVMVQSLSKYGVDYMMGIFVASNSAEAGATTAVWLKTKNKQLKEIAGSSALNAIIGVTEPALFGVTSKLKKPLIAVSIGGAVGGGIAGLFKVAAQGAGTGPIAGIPLFFGKTFIWFIISCLVSYVVSFILAYVIGFEDIPNPEDLSQKNSMDNHEKIVTTVVANQSVADPVNGNVIPLSEVKDNVFSSKMMGDGAAIVPNDNKIYAPFDGVVELVFETKHAIGLKSYDGCELLIHVGLDTVELKGKHFISHVIKDQKVKKGDLLLEFDREAISKEGYDTTIPVIVTNSKDFENITKTKKKQLQHGEELLKLTAKNKEN	failed
MSALDCPAGTVLFRAGQDCPGFLRLDEGSIRVTLTAANGREVVLYRVRPGDVCLQTFACLTEGRSYSAEGVAETRVRGHLMSHADFRTALARDEAFRTEVMQAVARRFADFEHLVEDVALTGFDTRLARVLLRLAKGDTVAATHEALAAETASGRAFVSRRLAEFARQGLVELARGRVTLCDRSGLERIAAEER	not failed
MYRDRIRLPSLMSKVMSAADAAALIEDGMTVGMSGFTRAGEAKAVPHALAERAKVTPLKISLMTGASLGNDLDKQLTESGVLSRRMPFQVDSTLRKAINNGTVMFIDQHLSDTVELLRNRQIKAVDLAVIECVAITEEGHLVLSTSVGNSASFAILAKQVIVEINLSQPLELEGLHDIYIPSYRPTRLPIPVLEADSRIGSHAVKIDPAKIVGIVISNQPDSPSTVTPPDADTQAIANHLVEFFKKEVREDRLTDKLMPLQAGIGNIANAVMHGLLESPFTDLTMYSEVLQDSTFDLFDAGKLTFASGSSMTLSAAKHAEVFADFNRYKSRLVLRPQEISNHPEVIRRLGIIGINTALEFDLYGNVNSTHICGTRMMNGIGGSGDFSRNAHLAIFVTKSIAKGGAISSVVPMVSHVDHTEHDVDILVTEQGLADLRGLAPRERARVIIDNCVHADYRDALNAYFDAACALGGHTPHILREALSWHINLEENGRMLPT	failed
PVNQVQSSVSWPQNGSLNSVSAPLMSYTPISFDAKIPVASVDKLRKDQDLILGTLPANSEDAGARGLFVRANDDGLQITSHGELVLDLSKRELAQLPADATIAISATEDETTAGIEGDDSTTETVERDVRPIIMGIYTELESNAAADLLNAGLNAHVEINSRFTSSPTLAKYAS	not failed
MLQVPKLTIIMPVYNTAQYLPRAFDALLKQIDKSFKLIVVDDGSTDNSVEVAQNYAYRFPYFKLIKKKNGGPSDARNVGMQYIDTPYVTFHDGDDWVDPGYTSFFIRAFEEHPDVNLVSCGYWMDYPDKKSRVVGRPEGGFLTRGETYLKLTNVFGSPMKGYSWNKAYKTAIIKKFHLQFDRDISLLEDQIFNVKYISVAKGVYYTQRPYYHYWQRKGSIIHQPNVKKVADNFRGNYRVWRRIIKTMLKDHEDEKMRKKLDRSPLRDSDVQ	failed
RGRGGTGGARRLSCGARRRAARGTSPGRRLSTAWSQPQPPPEEYAGADDVSQSPVAEEPSWVPSPRPPVPHESPEPPSGRSLVQRDIQAFLNQCGASPGEARHWLTQFQTCHHSADKPFAVIEVDEEVLKCQQGVSSLAFALAFLQRMDMKPLVVLGLPAPTAPSGCLSFWEAKAQLAKSCKVLVDALRHNAAAAVPFFGGGSVLRAAEPAPHASYGGIVSVETDLLQWCLESGSIPILCPIGETAARRSVLLDSLEVTASLAKALRPTKIIFLNNTGGLRDSSHKVLSNVNLPADLDLVCNAEWVSTKERQQMRLIVDVLSRLPHHSSAVITAASTLLTELFSNKGSGTLFKNAERMLRVRSLDKLDQGRLVDLVNASFGKKLRDDYLASLRPRLHSIYVSEGYNAAAILTMEPVLGGTPYLDKFVVSSSRQGQGSGQMLWECLRRDLQTLFWRSRVTNPINPWYFKHSDGSFSNKQWIFFWFGLADIRDSYELVNHAKGLPDSFHKPASDPGS	failed
MATHNIHMDCAVNPSVRWRSRPVSTQVPRTRRFAAVVGPIAFSTLGIVLSLFAAVAVDAQPRTPGRVAAVFPPWWDDARVVASAGTAGDIAGAGGASFIVILRGDPATLNQRARTAGAWLLLDPALAGACARPASEPVSS	failed
MVRYPLEPVLSIKKDRVDRAEKVVKEKRRLLELEQEKLRERESERDKVKNHYMQKIRQLREQLDDGTTSDAILKMKAYIKVVAIQLSEEEEKVNKQKENVLAASKELERAEVELTKRRKEEEKTRLHKEEWMKEALKEEARQEEKEQDEMGQLLHQLHKQKQRESGEN	failed
MNHSNLTILSVCSNFVIVVLKLIVGFFTGSVAVISEGIHSSMDLFASIITFFSIRISNQPADEDHPYGHGKAENIAGTIETLLIFVAGIWIIVESVNKLVNPHEIRFPALGIMVMLFGAIVNIIVSRIIKKAADEANSVAMKSNALHLYTDVFTSLGIALSLFLVYITGWLWLDPVIAILTAFYIMYEAYKLLKESFPPLMDKRLSADEEEAIKQIILAHKTRFIEFHDFRSRRAGAEEYIDFHLVVSSSMTIESAHSLCDEIEAEIMNFYAKAEVLIHLEPEEERVLTRI	failed
MQVPKVTLNNGVEMPILGYGVFQIPPEKTEECVYEAIKVGYRLIDTAASYMNEEGVGRAIKRAIDEGIVRREELFVTTKLWVSDVGYESTKKAFEKSLKKLQLEYIDLYLIHQPFGDVHCAWKAMEEMYKDGLVRAIGVSNFYPDRLMDLMVHHEIVPAVNQIEIHPFYQRQEEIEFMRNYNIQPEAWGPFAEGRKNIFQNGVLRSIAEKYGKTVAQVILRWLTQKGIVAIPKTVRRERMKENISIFDFELTQEDMEKIATLDEGQSAFFSHRDPEVVKWICSLKR	not failed
MYQVVASDLDGTLLSPDHFLTPYAKETLKLLTARGINFVFATGRHYIDVGQIRDNLGIRSYMITSNGARVHDSDGQQIFAHNLDRDIAADLFEIVRNDPKIVTNVYREDEWYMNRHRPEEMRFFKEAVFNYKLYEPGELDPQGISKVFFTCEDHEHLLPLEQAMNARWGDRVNVSFSTLTCLEVMAGGVSKGHALEAVAKMLGYTLSDCIAFGDGMNDAEMLSMAGKGCIMANAHQRLKDLHPELEVIGSNADDAVPRYLRKLYLD	not failed
MDGKRVWLSDDELTRFIEQAETPHQRLAFLLAGRVGLRRSEIIEVCPQDLVDGPTGDHIRVWESYAKRDKYREPPVPQEVVTIAETLAYQQDDDEPLLDVAGSTVYRWVRRAADELEEETGDRGWQYLDVHDLRRTWGTYLLEQGVIPSVVMSFGGWEDWDTFRKHYLGLEHHHHHH	failed
SSPQDTCCPPDSWPALKVDYKPKGKLEDIGKGLKAYVVGNGPRAVIALNDVFGIESGHSKEICDAIADKGFTVVFPDVFRGKPLQVSDMSKLFDELPGWAKQFDYEPALRKDVVEVILPYLHDKLGFKSNDQIALAGFCWGAFMLFHLAGDTKLPGGPFACGVSFHPSVQIEGVFQRDPLQLIDRATCPQLLLPSAGEPDYMKEEGDAIKKLRAKPFGASCGVKTFPSMQHGWVNRGDRNDPQVVKEAQEALQLAVDFMMRHTKPKA	not failed
MALSTEKKVGFFFMAGLVVLGVMLELGERWNPFEKNLPYVTYLSSTTGLKVGDPVRLAGVEVGKITRIDIEDGRVKVGFEVKPGTRIKTDSVATIRLTNLLGGQFLGISFGTQTADILAPGSEVKSREIANIDIIVDNVSDLTKDARTFLNDLNTNQNEVLGKISTMLDENRGNLKGAVQNLNSITAKMDRGEGSLAMLLNDKALYQNTNELATSLKTVTGKIERGEGSLGKLVNEDALYVEAKGALAELNAGAKDIKEIAAKINKGEGSVGKLVHDEALYNELRDASKNISDVARKINEGQGTLGKLVNDDKLYRDTAAAMKKLDKAADGLSDSGPISVLGSVVGTLF	failed
MNYNSIPTEIIDTILAELKIGLTLVNNTGKIIYFNQLAGELLGWDNKLPENTILSCHKKENQPKVIEKLNQPAAMEWHKVIKTQNRFIENAYSPINIPDKFMGAMILTKDVTAREESLEKLKKNAETDALTGLYNRNLFHTVIQSYITESKPYGLIMLDISGLKYINDHFGHEEGDRILKEAAEAIRSSIRDTDFAFRFGGDEFLILTSYQEAVLKTIANRIRSKNKIPTENTPAVLNLSLGYATSLEEKNMEAVLSSADQRMYRDKQLFYLGDGKYFKQ	failed
MTGIWEENTGKQSGDHSTPLRWRCFKHEKNRPPSLVPGQQSGIILACFRRGPPPRCLVKRLPYPGSALVLRRYIMSTSPVTLMVARRVADGRYQDLIAWLREGEQLATDFPGYLGSGVLAPPPNDDEFQIIFRFADESTLHTWEHSASRTAWLARGSDLFAHPSEHRVSGIDGWFGAAGHRPPRWKQAVAIWLAFFPVSLLFNFVLGPLLGDLSLLPRVFVSTLALTPLMVYFFIPLSTRLLANWLNSTPARPLPATPSTQNP	failed
MTYLETAAQFYSEVAQTPQVGLCCVQSTPLQLPGLKIPLPMQEMNYGCGTTVHPTELGKQPTVLYVGVGGGLEALQFAYFSRRPGAVIAVEPVAAMREAAARNLEMALTDNPWFDSSFVEIREGDAFNLPVADGSVDIVAQNCLFNIFEPEDLTRALKEAYRVLKPGGRLQMSDPIATSPVPAHLQQDERLRAMCLSGALTYEEYTQRIIDAGFGQIEIRARRPYRLLDSQTYNLETHLLLESLDSVSFKVPMPEDGACIFTGRTAIYAGCDAFFDDKAGHILQRGIPATVCDKTAAKLATVKPKEVIITDSTWHYNGGGCCLEHHHHHH	not failed
MASGLFENDGIKDNKARDFFYSHSSLIVFFLLLLGFGYYLGKLLFGGSSLEVYLDLRDKHERLQQEITELQSKNVRLQKRLFELKELRPRD	failed
MEIHFEKVTSDNRKAVENLQVFAEQQAFIESMAENLKESDQFPEWESAGIYDGNQLIGYAMYGRWQDGRVWLDRFLIDQRFQGQGYGKAACRLLMLKLIEKYQTNKLYLSVYDTNSSAIRLYQQLGFVFNGELDTNGERVMEWTHQNK	not failed
MAAGTFTAQNKVRPGVYINFKSEPQAAGTLGERGIVSMPLILSWGEPGKMITIEAGDDVFPKLGYSIMDAQLRLINEALKRAKTLLLYRLNAGTKAAVTVGNLTVTAKWGGARGNDITLVIQENIDDETKFDVSTLVDGAELDKQTVSDIAGLAANDWVIFSGTGALTETAGAPLINGSDGAVTNQAYIDYLAAVEIFDFNTIALPSTDDALKATFTAFAKRLRDDEGKKIQVVLENYPAADYEGVISVKNGVVLADGTILTAAQATAWVAGATAGARVNESLTYQGYDEAVDVAPRYTNAQIIAALQAGEFLFTASDNQALVEQDINTLTSFTADKGKQFAKNRVIRVLDGINNDFVRIFSKFYIGKVSNNADGRNLLKSECINYMNTLQDIDAIKNFDGQTDLTVQSGNDVDAVYIEAYAWPVDSIEKIYVRVRIKLEHHHHHH	not failed
MIEIKTLTNNDFNEYKRLVSTVNEEFTQDSHYSQTMTDTLIHDILNQGSPKCIVFGCYENETLIATAALEQIRYVGKEHKSLIKYNFVTNNDKSINSELINFIINYARQNNYESLLTSIVSNNIGAKVFYSALGFDILGFEKNAIKIGNTYFDEHWLFYDLINK	failed
MELVVGRVVKSHGVTGEVVVEIRTDDPADRFAPGTRLRAKGPFDGGAEGSAVSYVIESVRQHGGRLLVRLAGVADRDAADALRGSLFVIDADDLPPIDEPDTYYDHQLVGLMVQTATGEGVGVVTEVVHTAAGELLAVKRDSDEVLVPFVRAIVTSVSLDDGIVEIDPPHGLLNLE	failed
LPSDVTEGKTVFIRNLSFDSEEEALGEVLQQFGDLKYVRVVLHPDTEHSKGCAFAQFMTQEAAQKCLAAASLEAEGGGLKLDGRQLKVDLAVTRDEAA	not failed
